Results as given in EP0730651B1.

Columns and labels:
[1] = molecular target: soluble KGF receptor (FGFR(IIIb); K-sam) alkaline phosphatase fusion (FRAP) (murine) (UniProt P21803); assay: displacement of 125I-FGF-7 from soluble FGFR2(IIIb)-AP
[2] = molecular target: soluble KGF receptor (FGFR(IIIb); K-sam) alkaline phosphatase fusion (FRAP) (murine) (UniProt P21803); assay: competition with 125I-FGF-7, receptor binding experiments like those of Example 6

UniProt P21803, sequence (P21803 22-377): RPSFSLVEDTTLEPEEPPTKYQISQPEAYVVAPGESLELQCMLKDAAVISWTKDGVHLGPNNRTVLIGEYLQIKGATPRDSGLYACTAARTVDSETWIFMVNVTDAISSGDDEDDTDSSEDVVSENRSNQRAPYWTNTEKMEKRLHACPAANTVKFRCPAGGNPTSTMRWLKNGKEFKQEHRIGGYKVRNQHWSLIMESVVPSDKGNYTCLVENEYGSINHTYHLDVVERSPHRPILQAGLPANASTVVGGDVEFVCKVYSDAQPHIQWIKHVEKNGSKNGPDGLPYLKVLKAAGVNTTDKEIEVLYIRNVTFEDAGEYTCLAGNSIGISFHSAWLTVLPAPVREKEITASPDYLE

| Substance | fold weaker binding than FGF-7 or FGF-1 [1] [times less] | fold weaker potency of competition than unlabelled FGF-7 [2] [times weaker] |
| --- | --- | --- |
| FGF-2LA (human FGF-2 with surface loop residues 118 to 122 replaced by the corresponding bovine FGF-1 sequence) (ligand) | 5 |  |
| FGF-2LK (FGF-2 loop mutant containing the 9-residue loop sequence Ala-Lys-Trp-Thr-His-Asn-Gly-Gly-Glu from FGF-7) (from UniProt P09038 1-117; P09038 123-155) (ligand) |  | 100 |
